Measurements taken from US12384811B2, “Sialidase-resistant saccharide and method of making and using the same” (Academia Sinica, priority 2019, dated 2025).

How the values were obtained:
FcγRIIIa = target: T1, FcγRIIIa (Homo sapiens, UniProt P08637); assay: Surface plasmon resonance (SPR) analysis of binding avidity of glycoengineered Rituximab IgG1; details: for improvement in binding avidity to FcγRIIIa compared to the commercial sample of rituximab / Rmax / Kd / ka / kd: SPR; for Rmax / Kd / ka / kd: BIACORE T200, 25° C.; for Kd / ka / kd: single cycle kinetic, 1:1 Langmuir model; for Fold: binding avidity relative to commercial Rituximab
T1 construct: made in house; host or cells: HEK-293
T1 sequence (P08637 17-254): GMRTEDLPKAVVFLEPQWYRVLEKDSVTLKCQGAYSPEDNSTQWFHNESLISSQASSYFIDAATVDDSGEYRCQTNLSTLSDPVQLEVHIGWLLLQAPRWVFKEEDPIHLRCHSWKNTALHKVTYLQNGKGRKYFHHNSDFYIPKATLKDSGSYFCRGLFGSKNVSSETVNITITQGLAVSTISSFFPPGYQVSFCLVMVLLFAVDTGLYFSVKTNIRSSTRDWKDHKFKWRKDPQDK
Method: All the SPR experiments were performed with the single cycle kinetic method by BIACORE T200 at 25° C. using HBS-EP (10 mM HEPES pH7.4, 0.15M NaCl, 3mMEDTA, 0.005% surfactant P20) as running buffer. FcγRIIIa was transfected into HEK-293 cells to express the complex-type glycosylated recombinant protein as analyte. For the analysis of Rituximabs binding to FcγRIIIa receptor, antihuman Fab antibodies in human Fab capture kit (GE Healthcare) were immobilized onto both the reference and active channels of CM5 sensor chip, and then Rituximabs were captured on the active channel for interacting with the serial dilutions of FcγRIIIa analyte (2.5, 5, 10, 20, 40 nM for 2,6-FluoSCT and 2,6-SCT; 8, 24, 72, 216, 648 nM for the commercial Rituximabs) at 30 μl/min for association of 240 seconds followed by dissociation time of 420 seconds. Rituximab data were processed with double referencing for background subtraction. Data of Rituximabs was fitted to 1:1 Langmuir binding model in BiaEvaluation software (GE Healthcare) to obtain the kinetic/affinity constants (Table 4). Analyzed antibodies were captured by the Human Fab capture kit and detected with the single cycle kinetic method.

[1] = target: T2, sialidase from Vibrio cholerae (Vibrio cholerae serotype O1, UniProt P0C6E9); type: biochemical; details: pH 5.5
T2 construct: purchased Sigma Aldrich 11080725001
T2 sequence (P0C6E9 25-781): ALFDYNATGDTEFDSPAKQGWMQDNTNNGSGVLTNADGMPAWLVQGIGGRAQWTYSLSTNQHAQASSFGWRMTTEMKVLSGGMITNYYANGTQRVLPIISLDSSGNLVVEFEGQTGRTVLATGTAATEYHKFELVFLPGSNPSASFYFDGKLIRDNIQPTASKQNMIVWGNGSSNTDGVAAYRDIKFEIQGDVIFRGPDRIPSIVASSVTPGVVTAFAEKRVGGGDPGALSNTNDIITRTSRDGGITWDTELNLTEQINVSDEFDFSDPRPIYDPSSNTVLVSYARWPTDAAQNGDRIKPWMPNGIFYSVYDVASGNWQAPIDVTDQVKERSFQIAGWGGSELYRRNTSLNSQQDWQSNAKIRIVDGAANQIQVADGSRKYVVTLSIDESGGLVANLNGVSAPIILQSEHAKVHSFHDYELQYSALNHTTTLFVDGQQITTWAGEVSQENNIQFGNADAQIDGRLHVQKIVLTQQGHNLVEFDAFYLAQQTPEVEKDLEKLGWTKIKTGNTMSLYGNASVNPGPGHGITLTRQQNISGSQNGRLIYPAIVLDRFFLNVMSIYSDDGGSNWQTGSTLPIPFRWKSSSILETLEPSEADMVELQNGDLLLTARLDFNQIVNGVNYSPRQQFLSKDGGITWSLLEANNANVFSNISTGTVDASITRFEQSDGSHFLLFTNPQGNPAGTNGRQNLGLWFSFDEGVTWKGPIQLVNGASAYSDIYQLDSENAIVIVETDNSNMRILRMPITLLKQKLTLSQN

[2] = target: T2, sialidase from Vibrio cholerae; type: biochemical
[3] = test system: sialidase from Clostridium perfringens; type: biochemical; details: C. perfringens sialidase, substrate Neu5Ac-α2,6-GalβpNP 0.6 mM, inhibitor 0-20 mM (FIG. 1B)
[4] = test system: sialidase from Clostridium perfringens; type: biochemical; details: C. perfringens sialidase, 37° C., pH 5.0, substrate 0-20 mM, β-galactosidase, A405 nm (FIG. 1A)

For “2,6-F^axSCT: homogeneous rituximab IgG1 glycoform without core fucose bearing the 3F^ax-Neu5Ac-terminated α2,6-sialylated biantennary N-glycan”, the “improvement in binding avidity to FcγRIIIa compared to the commercial sample of rituximab” value (FcγRIIIa) was 37.4 fold, the Rmax (FcγRIIIa) was 71.28 RU and the Kd (FcγRIIIa) was 8.18 nM. For the same molecule, the ka (FcγRIIIa) was 244000 M⁻¹ s⁻¹, the kd (FcγRIIIa) was 0.001996 s⁻¹ and the Fold (FcγRIIIa) was 37.4-fold.

“2,6-SCT: parent nonfluorinated homogeneous rituximab glycoform (G2S2), α2,6-sialylated biantennary N-glycan without core fucose” was tested, and the “improvement in binding avidity to FcγRIIIa compared to the commercial sample of rituximab” value (FcγRIIIa) was 39.9 fold, the Rmax (FcγRIIIa) was 60.64 RU and the Kd (FcγRIIIa) was 7.67 nM. For the same molecule, the ka (FcγRIIIa) was 268000 M⁻¹ s⁻¹, the kd (FcγRIIIa) was 0.002059 s⁻¹ and the Fold (FcγRIIIa) was 39.9-fold.

`CC(=O)N[C@H]1[C@H]([C@H](O)[C@H](O)CO)OC(OC[C@H]2O[C@@H](Oc3ccc([N+](=O)[O-])cc3)[C@H](O)[C@@H](O)[C@H]2O)(C(=O)O)C[C@@H]1O` (stereo partly drawn) [Compound 1, p-Nitrophenyl [5-acetamido-5-deoxy-D-glycero-α-D-galacto-non-2-ulopyranosylonate]-(2→6)-β-D-galactopyranoside] was tested, and the “hydrolytic activity of the sialidase toward the substrate” value (from here on “hydrolytic activity”) [1] was “expected hydrolytic activity”.

With `CC(=O)N[C@H]1[C@H]([C@H](O)[C@H](O)CO)OC(C(=O)O)=C[C@@H]1O` [DANA, 2-deoxy-2,3-didehydro-N-acetylneuraminic acid] the “inhibition of the hydrolysis of 1” value [2] was “inhibit the hydrolysis of 1” and the “inhibition of the hydrolysis of 1” value [3] was “inhibit the hydrolysis of 1”.

“Rituximab: commercial sample of rituximab (Rituxan, Roche; major glycoforms: G1F1, G0F1, G2F1)” was tested, and the Rmax (FcγRIIIa) was 32.33 RU, the Kd (FcγRIIIa) was 306 nM and the ka (FcγRIIIa) was 231000 M⁻¹ s⁻¹. The kd (FcγRIIIa) was 0.07054 s⁻¹ and the Fold (FcγRIIIa) was 1-fold.

“p-Nitrophenyl [methyl 5-acetamido-3,5-dideoxy-3-fluoro-D-erythro-α-L-manno-non-2-ulopyranosonate]-(2→6)-β-D-galactopyranoside [Compound 2]” was tested, and the “inhibition of the hydrolysis of 1” value [2] was “did not significantly inhibit”, the “hydrolytic activity” value [1] was “inactive” and the “inhibition of the hydrolysis of 1” value [3] was “did not significantly inhibit”. The “hydrolytic activity” value [4] was “inactive”.
